Test results as given in PMC12338045 (Science (New York, N.Y.), 2025).

Tests used:
[1] = biological target: Mcm3 (yeast) (budding yeast, UniProt P24279 1-971); test: cryo-EM structure
[2] = biological target: T1, Mcm4 (yeast) (budding yeast, UniProt P30665 1-933); test: cryo-EM structure
T1 sequence: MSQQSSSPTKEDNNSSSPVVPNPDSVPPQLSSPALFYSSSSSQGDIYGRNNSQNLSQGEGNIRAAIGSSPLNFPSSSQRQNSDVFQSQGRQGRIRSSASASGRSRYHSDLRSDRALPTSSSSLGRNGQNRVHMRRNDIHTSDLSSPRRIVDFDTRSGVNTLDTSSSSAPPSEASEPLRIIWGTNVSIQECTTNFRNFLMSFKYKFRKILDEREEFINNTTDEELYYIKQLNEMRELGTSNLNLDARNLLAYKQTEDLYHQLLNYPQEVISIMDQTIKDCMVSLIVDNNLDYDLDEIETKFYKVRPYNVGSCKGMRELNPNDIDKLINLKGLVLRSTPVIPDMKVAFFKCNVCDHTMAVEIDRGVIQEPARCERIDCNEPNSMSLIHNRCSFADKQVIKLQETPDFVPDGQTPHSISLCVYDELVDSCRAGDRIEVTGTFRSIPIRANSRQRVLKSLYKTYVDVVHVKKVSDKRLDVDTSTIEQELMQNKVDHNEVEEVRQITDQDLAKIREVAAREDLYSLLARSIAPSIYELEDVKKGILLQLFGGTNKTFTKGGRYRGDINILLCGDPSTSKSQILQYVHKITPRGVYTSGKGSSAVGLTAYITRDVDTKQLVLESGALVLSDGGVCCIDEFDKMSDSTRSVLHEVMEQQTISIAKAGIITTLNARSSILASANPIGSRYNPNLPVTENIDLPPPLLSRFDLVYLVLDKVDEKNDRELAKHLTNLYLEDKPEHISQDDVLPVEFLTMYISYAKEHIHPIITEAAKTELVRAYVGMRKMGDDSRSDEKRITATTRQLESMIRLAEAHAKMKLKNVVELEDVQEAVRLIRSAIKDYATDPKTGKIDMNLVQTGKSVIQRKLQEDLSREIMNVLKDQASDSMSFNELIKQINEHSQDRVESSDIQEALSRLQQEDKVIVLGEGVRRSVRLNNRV

Sequence of Mcm3 (yeast) (P24279 whole entry): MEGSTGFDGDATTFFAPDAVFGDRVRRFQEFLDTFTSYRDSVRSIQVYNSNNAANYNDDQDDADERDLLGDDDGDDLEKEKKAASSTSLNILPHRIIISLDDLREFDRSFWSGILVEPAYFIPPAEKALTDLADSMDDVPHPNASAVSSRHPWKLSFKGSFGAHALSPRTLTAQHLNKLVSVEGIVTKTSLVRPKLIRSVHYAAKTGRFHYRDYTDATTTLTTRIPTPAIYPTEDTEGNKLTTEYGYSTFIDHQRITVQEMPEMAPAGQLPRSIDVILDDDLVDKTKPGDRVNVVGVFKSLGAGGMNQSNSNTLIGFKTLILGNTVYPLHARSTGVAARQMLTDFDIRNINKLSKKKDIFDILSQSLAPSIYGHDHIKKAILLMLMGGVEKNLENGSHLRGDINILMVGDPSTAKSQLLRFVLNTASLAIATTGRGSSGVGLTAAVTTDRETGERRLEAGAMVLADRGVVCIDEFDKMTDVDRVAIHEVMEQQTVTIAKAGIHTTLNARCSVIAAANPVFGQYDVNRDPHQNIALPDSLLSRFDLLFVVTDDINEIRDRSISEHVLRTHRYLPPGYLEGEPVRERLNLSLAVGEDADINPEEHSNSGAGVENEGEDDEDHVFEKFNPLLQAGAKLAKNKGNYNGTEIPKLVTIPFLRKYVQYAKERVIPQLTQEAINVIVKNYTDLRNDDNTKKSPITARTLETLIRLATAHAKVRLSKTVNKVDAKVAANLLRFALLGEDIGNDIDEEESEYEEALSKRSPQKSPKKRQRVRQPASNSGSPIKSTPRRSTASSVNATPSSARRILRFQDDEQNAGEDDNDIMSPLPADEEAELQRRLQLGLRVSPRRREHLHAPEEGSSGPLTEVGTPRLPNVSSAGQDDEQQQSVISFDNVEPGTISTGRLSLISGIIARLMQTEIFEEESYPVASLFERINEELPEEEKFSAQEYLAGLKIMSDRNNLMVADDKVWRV

B1: Mcm7 (yeast) (natural protein, budding yeast)
chain: MSAALPSIQLPVDYNNLFNEITDFLVTFKQDTLSSDATRNENEDENLDAENIEQHLLEKGPKYMAMLQKVANRELNSVIIDLDDILQYQNEKFLQGTQADDLVSAIQQNANHFTELFCRAIDNNMPLPTKEIDYKDDVLDVILNQRRLRNERMLSDRTNEIRSENLMDTTMDPPSSMNDALREVVEDETELFPPNLTRRYFLYFKPLSQNCARRYRKKAISSKPLSVRQIKGDFLGQLITVRGIITRVSDVKPAVEVIAYTCDQCGYEVFQEVNSRTFTPLSECTSEECSQNQTKGQLFMSTRASKFSAFQECKIQELSQQVPVGHIPRSLNIHVNGTLVRSLSPGDIVDVTGIFLPAPYTGFKALKAGLLTETYLEAQFVRQHKKKFASFSLTSDVEERVMELITSGDVYNRLAKSIAPEIYGNLDVKKALLLLLVGGVDKRVGDGMKIRGDINVCLMGDPGVAKSQLLKAICKISPRGVYTTGKGSSGVGLTAAVMKDPVTDEMILEGGALVLADNGICCIDEFDKMDESDRTAIHEVMEQQTISISKAGINTTLNARTSILAAANPLYGRYNPRLSPLDNINLPAALLSRFDILFLMLDIPSRDDDEKLAEHVTYVHMHNKQPDLDFTPVEPSKMREYIAYAKTKRPVMSEAVNDYVVQAYIRLRQDSKREMDSKFSFGQATPRTLLGIIRLSQALAKLRLADMVDIDDVEEALRLVRVSKESLYQETNKSKEDESPTTKIFTIIKKMLQETGKNTLSYENIVKTVRLRGFTMLQLSNCIQEYSYLNVWHLINEGNTLKFVDDGTMDTDQEDSLVSTPKLAPQTTASANVSAQDSDIDLQDA
binding result [1]: binds
binding result [2]: binds
